Measurements: article PMC3115872, “Characterization of the expression, promoter activity and molecular architecture of fibin” (BMC Biochemistry, 2011)

Target: the molecule itself
Experiment: non-reducing SDS-PAGE with Western blot; lysates of transfected COS-7 cells harvested after 72 h; equal amounts of protein separated by SDS-PAGE under non-reducing conditions; immunoblot with anti-fibin-2 antibody

B1: fibin (mouse), wild type (natural protein, UniProt Q9CQS3 19-217, looked up)
chain: YFDGPLYPEMSNGTLHHYFVPDGDYEENDDPEKCQLLFRVSDRRRCSQGEGGQASSLLSLTLREEFTVLGRQVEDAGRVLEGISKSISYDLDGEESYGKYLRRESHQIGDAYSNSDKSLTELESKFKQGQEQDSRQESRLNEDFLGMLVHTRSLLKETLDISVGLRDKYELLAHTIRSHGTRLGRLKSDYLEGGAQKTG
modifications: N-glycosylated at Asn30
notes: mouse fibin; also called WT fibin; wild-type fibin; source: COS-7, transfected (pcDps vector), in lysate
  stoichiometry N: 2
